Source: US20070122429A1 (published 2007)

Legend:
[1] = target: HIV-1 HXB2 Env (gp41 N-trimer region) (HIV-1 HXB2, UniProt P04578 33-856); assay: cell-based or functional assay
[2] = target: HIV-1 JRFL Env (gp41 N-trimer region) (HIV-1 JRFL); assay: cell-based or functional assay
[3] = target: T1, IZN36 (biotinylated Cys-Gly-Gly-Asp-IZN36, His tag removed); assay: SPR, immobilised IZN36; compared with MBP-C37
T1 construct: also called biotinylated IZN36

SSSSSGGHTTWMEWDREINNYTSLIHSLIEESQNQQEKNEQELLHHHHHH (other) [MBP-C37]
IC50, cell-cell fusion (HXB2 Env) [1]: 192 nM
IC50, viral infectivity HXB2 [1]: 206 nM
IC50 ratio (cell-cell fusion), relative to C37 [1]: 225
IC50 ratio HXB2 (viral infectivity), relative to C37 [1]: 74.8
IC50, viral infectivity JRFL [2]: 1870 nM
IC50 ratio JRFL (viral infectivity), relative to C37 [2]: 228

B1: MBP2-C37 (other)
chain: SSSGGGSGGGSGGGSSGGGSGGGSGGGSSSSGGHTTWMEWDREINNYTSLIHSLIEESQNQQEKNEQELLHHHHHH
notes: domain: C-peptide (C37)
KD difference from MBP-C37 [3]: < 20%
IC50, viral infectivity HXB2 [1]: 79.2 nM
IC50, viral infectivity JRFL [2]: 516 nM

B2: MBP1-C37 (other)
chain: SSSGGGSGGGSGGGSSSSGGHTTWMEWDREINNYTSLIHSLIEESQNQQEKNEQELLHHHHHH
notes: domain: C-peptide (C37)
KD difference from MBP-C37 [3]: < 20%
IC50, viral infectivity HXB2 [1]: 88.9 nM
IC50, viral infectivity JRFL [2]: 640 nM
